From FireProtDB (doi:10.1016/j.jmb.2009.05.011)

B1: Dihydrolipoyllysine-residue succinyltransferase component of 2-oxoglutarate dehydrogenase complex, P0AFG6 (parent)
chain: MSSVDILVPDLPESVADATVATWHKKPGDAVVRDEVLVEIETDKVVLEVPASADGILDAVLEDEGTTVTSRQILGRLREGNSAGKETSAKSEEKASTPAQRQQASLEEQNNDALSPAIRRLLAEHNLDASAIKGTGVGGRLTREDVEKHLAKAPAKESAPAAAAPAAQPALAARSEKRVPMTRLRKRVAERLLEAKNSTAMLTTFNEVNMKPIMDLRKQYGEAFEKRHGIRLGFMSFYVKAVVEALKRYPEVNASIDGDDVVYHNYFDVSMAVSTPRGLVTPVLRDVDTLGMADIEKKIKELAVKGRDGKLTVEDLTGGNFTITNGGVFGSLMSTPIINPPQSAILGMHAIKDRPMAVNGQVEILPMMYLALSYDHRLIDGRESVGFLVTIKELLEDPTRLLLDV

Variants of: B1
Settings: Escherichia coli (strain K12); pH 7; Thermal; CD; Potassium phosphate 50 mM; KCl 200 mM; structure 1W4H; whole UniProt chain shown

Variant | Tm | ddG of mutation (higher = less stable) | unfolding enthalpy (van 't Hoff)
MSSVDILVPDLPESVADATVATWHKKPGDAVVRDEVLVEIETDKVVLEVPASADGILDAVLEDEGTTVTSRQILGRLREGNSAGKETSAKSEEKASTPAQRQQASLEEQNNDALSPAIRRLLAEHNLDASAIKGTGVGGRLTREDVEKHLGKAPAKESAPAAAAPAAQPALAARSEKRVPMTRLRKRVAERLLEAKNSTAMLTTFNEVNMKPIMDLRKQYGEAFEKRHGIRLGFMSFYVKAVVEALKRYPEVNASIDGDDVVYHNYFDVSMAVSTPRGLVTPVLRDVDTLGMADIEKKIKELAVKGRDGKLTVEDLTGGNFTITNGGVFGSLMSTPIINPPQSAILGMHAIKDRPMAVNGQVEILPMMYLALSYDHRLIDGRESVGFLVTIKELLEDPTRLLLDV [A151G] | 53.2 °C | 0.07 kcal/mol | 21 kcal/mol
MSSVDILVPDLPESVADATVATWHKKPGDAVVRDEVLVEIETDKVVLEVPASADGILDAVLEDEGTTVTSRQILGRLREGNSAGKETSAKSEEKASTPAQRQQASLEEQNNDALSPAVRRLLAEHNLDASAIKGTGVGGRLTREDVEKHLAKAPAKESAPAAAAPAAQPALAARSEKRVPMTRLRKRVAERLLEAKNSTAMLTTFNEVNMKPIMDLRKQYGEAFEKRHGIRLGFMSFYVKAVVEALKRYPEVNASIDGDDVVYHNYFDVSMAVSTPRGLVTPVLRDVDTLGMADIEKKIKELAVKGRDGKLTVEDLTGGNFTITNGGVFGSLMSTPIINPPQSAILGMHAIKDRPMAVNGQVEILPMMYLALSYDHRLIDGRESVGFLVTIKELLEDPTRLLLDV [I118V] | 53.8 °C | 0.03 kcal/mol | 26 kcal/mol
MSSVDILVPDLPESVADATVATWHKKPGDAVVRDEVLVEIETDKVVLEVPASADGILDAVLEDEGTTVTSRQILGRLREGNSAGKETSAKSEEKASTPAQRQQASLEEQNNDALSPAIRRLLAEHNLDASAIKGTGVGGRLTREDVEKALAKAPAKESAPAAAAPAAQPALAARSEKRVPMTRLRKRVAERLLEAKNSTAMLTTFNEVNMKPIMDLRKQYGEAFEKRHGIRLGFMSFYVKAVVEALKRYPEVNASIDGDDVVYHNYFDVSMAVSTPRGLVTPVLRDVDTLGMADIEKKIKELAVKGRDGKLTVEDLTGGNFTITNGGVFGSLMSTPIINPPQSAILGMHAIKDRPMAVNGQVEILPMMYLALSYDHRLIDGRESVGFLVTIKELLEDPTRLLLDV [H149A] | 55 °C | -0.06 kcal/mol | 22 kcal/mol
MSSVDILVPDLPESVADATVATWHKKPGDAVVRDEVLVEIETDKVVLEVPASADGILDAVLEDEGTTVTSRQILGRLREGNSAGKETSAKSEEKASTPAQRQQASLEEQNNDALSPAIRRLLAEHNLDASAIKGSGVGGRLTREDVEKHLAKAPAKESAPAAAAPAAQPALAARSEKRVPMTRLRKRVAERLLEAKNSTAMLTTFNEVNMKPIMDLRKQYGEAFEKRHGIRLGFMSFYVKAVVEALKRYPEVNASIDGDDVVYHNYFDVSMAVSTPRGLVTPVLRDVDTLGMADIEKKIKELAVKGRDGKLTVEDLTGGNFTITNGGVFGSLMSTPIINPPQSAILGMHAIKDRPMAVNGQVEILPMMYLALSYDHRLIDGRESVGFLVTIKELLEDPTRLLLDV [T135S] | 50.4 °C | 0.29 kcal/mol | 21 kcal/mol
